Results: the Human Domainome abundance scans (Beltran et al. 2025)
± gives the uncertainty stated by the source.

B1: CD2-associated protein, residues 109 to 169; numbered along this chain, Q9Y5K6 (parent)
chain: KKRQCKVLFEYIPQNEDELELKVGDIIDINEEVEEGWWSGTLNNKLGLFPSNFVKELEVTD

Variants of: B1
Test: abundance fitness (aPCA) (normalised: wild type 0, dead -1); higher = more abundant; growth selection in yeast, the domain comes from the species named
Conditions: Homo sapiens

Going from P13S to P13R, the abundance fitness rises from -0.444 ± 0.21 to 0.026 ± 0.094.

Going from P13G to L46N, the abundance fitness rises from -0.547 ± 0.13 to 0.074 ± 0.056.

Going from L46G to L46K, the abundance fitness rises from -0.303 ± 0.076 to 0.069 ± 0.099.

L46H and L46Y are within error of each other in abundance fitness: 0.035 ± 0.051 for the first, 0.011 ± 0.049 for the second.

L46F and L46I are within error of each other in abundance fitness: 0.092 ± 0.046 for the first, 0.169 ± 0.049 for the second.

L46D and L46A are within error of each other in abundance fitness: 0.034 ± 0.082 for the first, 0.031 ± 0.069 for the second.

Compared with L46S, L57N is lower in abundance fitness: 0.113 ± 0.044 for the first, -0.69 ± 0.3 for the second.

L57F and L57A are within error of each other in abundance fitness: -0.148 ± 0.13 for the first, -0.585 ± 0.4 for the second.

First: L57V
Second: L57R
The abundance fitness of the first is higher: -0.239 ± 0.13 for the first, -0.64 ± 0.15 for the second.

L57K and V7C are within error of each other in abundance fitness: -0.263 ± 0.15 for the first, -0.293 ± 0.2 for the second.

N44K and N44P are within error of each other in abundance fitness: 0.019 ± 0.24 for the first, -0.356 ± 0.37 for the second.

N44V and N44Y are within error of each other in abundance fitness: -0.795 ± 0.25 for the first, -0.483 ± 0.33 for the second.

N44A and V59C are within error of each other in abundance fitness: -0.048 ± 0.14 for the first, -0.123 ± 0.13 for the second.

V59Y and V59M are within error of each other in abundance fitness: 0.036 ± 0.19 for the first, -0.219 ± 0.12 for the second.

Going from L48D to L48T, the abundance fitness rises from -0.821 ± 0.21 to -0.021 ± 0.084.

Compared with L48K, L48C is lower in abundance fitness: 0.197 ± 0.073 for the first, -0.094 ± 0.13 for the second.

Compared with L48R, L48G is lower in abundance fitness: 0.273 ± 0.074 for the first, -0.618 ± 0.11 for the second.

L48W and L48Q are within error of each other in abundance fitness: -0.201 ± 0.1 for the first, -0.298 ± 0.092 for the second.

Going from L48M to N15M, the abundance fitness falls from -0.107 ± 0.08 to -0.614 ± 0.36.

Going from N15G to N15W, the abundance fitness falls from -0.19 ± 0.14 to -0.483 ± 0.15.

Going from N15F to N15S, the abundance fitness rises from -0.448 ± 0.15 to -0.04 ± 0.086.

N15Y and N15I are within error of each other in abundance fitness: -0.558 ± 0.27 for the first, -0.851 ± 0.22 for the second.

First: N15K
Second: S39D
The abundance fitness of the first is higher: -0.041 ± 0.18 for the first, -0.696 ± 0.28 for the second.

Going from S39T to S39G, the abundance fitness falls from -0.06 ± 0.084 to -0.459 ± 0.11.

S39N and S39H are within error of each other in abundance fitness: -0.25 ± 0.11 for the first, -0.085 ± 0.15 for the second.

Going from S39Y to S39V, the abundance fitness rises from -0.257 ± 0.12 to 0.094 ± 0.074.

First: S39P
Second: L8Y
The abundance fitness of the first is lower: -1.1 ± 0.33 for the first, -0.288 ± 0.18 for the second.

L8Q and L8A are within error of each other in abundance fitness: -0.437 ± 0.23 for the first, -0.34 ± 0.2 for the second.

L8P and L8K are within error of each other in abundance fitness: -0.596 ± 0.29 for the first, -0.304 ± 0.14 for the second.

L8D and L8R are within error of each other in abundance fitness: -0.267 ± 0.25 for the first, -0.345 ± 0.17 for the second.

I26T and I26C are within error of each other in abundance fitness: -0.495 ± 0.13 for the first, -0.722 ± 0.29 for the second.

Compared with I26S, G36Y is higher in abundance fitness: -0.623 ± 0.12 for the first, -0.276 ± 0.076 for the second.

Going from G36I to G36M, the abundance fitness rises from -0.605 ± 0.11 to -0.201 ± 0.12.

Compared with G36N, G36A is lower in abundance fitness: -0.004 ± 0.085 for the first, -0.357 ± 0.087 for the second.

G36D and G36E are within error of each other in abundance fitness: -0.178 ± 0.079 for the first, 0.041 ± 0.23 for the second.

D28G and D28L are within error of each other in abundance fitness: -0.581 ± 0.13 for the first, -0.4 ± 0.12 for the second.

Going from D28S to D28E, the abundance fitness rises from -0.368 ± 0.1 to 0.131 ± 0.11.

First: K6Y
Second: K6C
The abundance fitness of the first is higher: 0.219 ± 0.055 for the first, 0.088 ± 0.052 for the second.

K6Q and K6I are within error of each other in abundance fitness: 0.191 ± 0.065 for the first, 0.309 ± 0.054 for the second.

E56A and E56S are within error of each other in abundance fitness: -0.366 ± 0.12 for the first, -0.32 ± 0.094 for the second.

First: E56D
Second: E56C
The abundance fitness of the first is lower: -0.505 ± 0.24 for the first, 0.034 ± 0.14 for the second.

Compared with E56K, E56I is lower in abundance fitness: 0.16 ± 0.14 for the first, -0.225 ± 0.11 for the second.

Compared with E56Y, E56T is higher in abundance fitness: -0.717 ± 0.28 for the first, -0.033 ± 0.097 for the second.

E56Q and S51M are within error of each other in abundance fitness: -0.291 ± 0.18 for the first, -0.138 ± 0.11 for the second.

S51F and S51R are within error of each other in abundance fitness: -0.431 ± 0.26 for the first, -0.361 ± 0.091 for the second.

W37Y and W37R are within error of each other in abundance fitness: -0.448 ± 0.48 for the first, -0.375 ± 0.14 for the second.

W37G and W37L are within error of each other in abundance fitness: -0.74 ± 0.43 for the first, -0.344 ± 0.12 for the second.

F49R and F49W are within error of each other in abundance fitness: -1.3 ± 0.26 for the first, -1.01 ± 0.25 for the second.

F49S and F49L are within error of each other in abundance fitness: -0.707 ± 0.16 for the first, -0.77 ± 0.15 for the second.

Going from F49T to G24D, the abundance fitness rises from -0.921 ± 0.29 to -0.252 ± 0.25.

G24T and G24P are within error of each other in abundance fitness: -0.559 ± 0.27 for the first, -0.838 ± 0.46 for the second.

G24Y and G24E are within error of each other in abundance fitness: -0.56 ± 0.4 for the first, -0.227 ± 0.23 for the second.

G24V and G24A are within error of each other in abundance fitness: -0.615 ± 0.26 for the first, -0.783 ± 0.28 for the second.

R3Q and R3A are within error of each other in abundance fitness: -0.963 ± 0.31 for the first, -0.664 ± 0.14 for the second.

R3P and R3F are within error of each other in abundance fitness: -0.572 ± 0.15 for the first, -0.451 ± 0.1 for the second.

R3C and Q14G are within error of each other in abundance fitness: -0.38 ± 0.069 for the first, -0.337 ± 0.18 for the second.

Q14V and E18L are within error of each other in abundance fitness: -0.338 ± 0.27 for the first, -0.684 ± 0.19 for the second.

Compared with E18T, K2G is higher in abundance fitness: -0.838 ± 0.29 for the first, -0.007 ± 0.36 for the second.

K2M and E20K are within error of each other in abundance fitness: 0.011 ± 0.21 for the first, -0.002 ± 0.46 for the second.

E20I and E20H are within error of each other in abundance fitness: -0.502 ± 0.34 for the first, -0.214 ± 0.32 for the second.

First: E20V
Second: E20W
The abundance fitness of the first is lower: -0.435 ± 0.25 for the first, 0.012 ± 0.15 for the second.

Compared with E20A, G47Y is lower in abundance fitness: -0.015 ± 0.18 for the first, -0.434 ± 0.19 for the second.

G47Q and G47K are within error of each other in abundance fitness: -0.696 ± 0.17 for the first, -0.773 ± 0.23 for the second.

G47P and G47L are within error of each other in abundance fitness: -0.82 ± 0.17 for the first, -0.922 ± 0.16 for the second.

E34W and E34I are within error of each other in abundance fitness: -0.347 ± 0.15 for the first, -0.247 ± 0.21 for the second.

E34G and E34N are within error of each other in abundance fitness: -0.067 ± 0.16 for the first, -0.337 ± 0.44 for the second.

First: E34M
Second: I27A
The abundance fitness of the first is higher: -0.045 ± 0.19 for the first, -0.608 ± 0.18 for the second.

I27G and I27M are within error of each other in abundance fitness: -0.939 ± 0.44 for the first, -0.716 ± 0.24 for the second.

I27K and I27Y are within error of each other in abundance fitness: -1.03 ± 0.42 for the first, -0.684 ± 0.49 for the second.

First: F53L
Second: F53I
The abundance fitness of the first is lower: -0.157 ± 0.093 for the first, 0.149 ± 0.11 for the second.

Compared with F53M, F53W is lower in abundance fitness: 0.057 ± 0.13 for the first, -0.56 ± 0.31 for the second.

F53H and E58A are within error of each other in abundance fitness: 0.054 ± 0.22 for the first, -0.305 ± 0.15 for the second.

E58Y and E58V are within error of each other in abundance fitness: -0.045 ± 0.14 for the first, 0.078 ± 0.14 for the second.

First: E58G
Second: E58R
The abundance fitness of the first is higher: 0.094 ± 0.11 for the first, -0.232 ± 0.1 for the second.

E58D and E58S are within error of each other in abundance fitness: 0.056 ± 0.18 for the first, -0.035 ± 0.1 for the second.

Going from G40V to G40C, the abundance fitness falls from -0.306 ± 0.14 to -0.664 ± 0.14.

G40F and V23I are within error of each other in abundance fitness: -0.477 ± 0.16 for the first, -0.143 ± 0.24 for the second.

V23R and V23A are within error of each other in abundance fitness: -0.092 ± 0.14 for the first, -0.595 ± 0.44 for the second.

First: V23H
Second: D17L
The abundance fitness of the first is lower: -0.677 ± 0.38 for the first, -0.13 ± 0.13 for the second.

D17M and D17Y are within error of each other in abundance fitness: 0.001 ± 0.26 for the first, -0.192 ± 0.38 for the second.

D17T and D17R are within error of each other in abundance fitness: -0.298 ± 0.46 for the first, 0.076 ± 0.16 for the second.

E16P and E16G are within error of each other in abundance fitness: -0.191 ± 0.16 for the first, -0.303 ± 0.15 for the second.

E16M and E16I are within error of each other in abundance fitness: 0.147 ± 0.24 for the first, -0.552 ± 0.48 for the second.

For E16W, the abundance fitness was -0.317 ± 0.44.
